Positions count from the first letter of the chain named. Names may count otherwise.
T1: TlpA_CC R179E (G1B)
T1 construct: Purified coiled-coil domain of TlpA used for CD; The entry already holds the initiating Met, the R179E mutation (numbered on full-length TlpA), C-terminal Leu-Gly and a His6 tag; also called TlpA-G1B (R179E); R179E variant
T1 chain: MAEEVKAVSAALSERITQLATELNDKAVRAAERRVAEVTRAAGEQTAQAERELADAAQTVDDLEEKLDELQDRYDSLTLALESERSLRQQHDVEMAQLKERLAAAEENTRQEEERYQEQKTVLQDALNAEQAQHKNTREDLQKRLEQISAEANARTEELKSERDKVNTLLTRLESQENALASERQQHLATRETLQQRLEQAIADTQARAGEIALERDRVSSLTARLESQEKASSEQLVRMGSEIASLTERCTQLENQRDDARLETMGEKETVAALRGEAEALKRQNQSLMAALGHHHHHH

B1: wild-type TlpA, full length, C-terminal HA tag (crosslinking construct) (other)
chain: MRPATYEPEQIIEAGLALQAEGRNITGFALRNQVGGGNPTRLRQIWDEYQASQSTVVTEPVAELPVEVAEEVKAVSAALSERITQLATELNDKAVRAAERRVAEVTRAAGEQTAQAERELADAAQTVDDLEEKLDELQDRYDSLTLALESERSLRQQHDVEMAQLKERLAAAEENTRQREERYQEQKTVLQDALNAEQAQHKNTREDLQKRLEQISAEANARTEELKSERDKVNTLLTRLESQENALASERQQHLATRETLQQRLEQAIADTQARAGEIALERDRVSSLTARLESQEKASSEQLVRMGSEIASLTERCTQLENQRDDARLETMGEKETVAALRGEAEALKRQNQSLMAALSGNKQTGGQNA
notes: also called wt; not shown: C-terminal HA tag
B2: TlpA_CC E180R (G1A) (designed binder)
chain: T1 chain with E112R, E113R
notes: Purified coiled-coil domain of TlpA used for CD; The entry already holds the initiating Met, the E180R mutation (numbered on full-length TlpA), C-terminal Leu-Gly and a His6 tag; also called TlpA-G1A (E180R); E180R variant

How the values were obtained:
[1] = target: the molecule itself; test: CuCl2 crosslinking in E. coli lysate, SDS-PAGE, anti-HA Western; full-length homodimer band
TlpA_CC R179E (G1B) = target: T1, TlpA_CC R179E (G1B); test: CD melting curve at 222 nm, purified coiled-coil domains, 3 uM in PBS

Binder | binding result [1] | binding result (TlpA_CC R179E (G1B))
B1 | binds | –
B2 | – | binds
